The record followed here is patent publication US20240165252A1, “ANTIBODY-DRUG CONJUGATE AND MEDICAL USE THEREOF” (Shanghai Hansoh Biomedical Co., Ltd., priority 2021, published 2024).

Bounds are passed on as bounds.

In experiment [1] the target is BCMA expressed on cells (HEK-293T cells overexpressing BCMA; NCI-H929 tumor cells) (human) (UniProt Q02223). The experiment can be described thus: cell-based or functional assay.
Experiment [2] has as its target T1, BCMA expressed on cells (HEK-293T cells overexpressing BCMA; NCI-H929 tumor cells) (human, UniProt Q02223 1-184).
T1 construct: whole, on cells; also called HEK-293T/BCMA cells; NCI-H929 cells
T1 sequence (looked up): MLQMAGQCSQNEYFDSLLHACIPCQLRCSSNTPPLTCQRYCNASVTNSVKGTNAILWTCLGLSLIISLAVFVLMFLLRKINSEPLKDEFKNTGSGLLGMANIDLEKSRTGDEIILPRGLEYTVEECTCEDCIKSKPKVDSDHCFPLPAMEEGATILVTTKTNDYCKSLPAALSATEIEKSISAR
The experiment can be described thus: flow cytometry on NCI-H929 cells. Here is the method: (§1) The cultured cells with high BCMA expression (HEK-293T cells overexpressing BCMA; tumor cells expressing BCMA, NCI-H929) were collected. The cell density was adjusted and the cells were plated on a 96-well U-bottomed plate at 1×10⁵ to 2×10⁵ cells per well. The plate was centrifuged at 1200 g for 5 min and the supernatant was removed. 100 μl of gradient diluted antibody solution or mouse immunized serum was added and incubated at 4° C. for 60 min. The plate was centrifuged at 1200 g for 5 min and the supernatant was removed. The cells were washed twice with PBS. A fluorescently labeled secondary antibody (PE-GAH or PE-GAM) was added at 100 μl per well and incubated at 4° C. for 60 min. The plate was centrifuged at 1200 g for 5 min and the supernatant was removed. The cells were washed twice with PBS and then re-suspended in PBS. The signal was detected by using a flow cytometer, and a concentration curve was plotted for result analysis.

Experiment [3] has as its target T1, BCMA expressed on cells (HEK-293T cells …). Description: flow cytometry on HEK-293T/BCMA cells. How it is done: as §1
The target in experiment [4] is T2, His-tagged extracellular domain of human BCMA (BCMA-His) (human).
T2 construct: Bought protein; also called BCMA His protein; human BCMA His antigen
T2 chain: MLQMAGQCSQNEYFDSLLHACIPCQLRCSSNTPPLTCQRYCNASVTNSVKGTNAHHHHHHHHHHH
The experiment can be described thus: indirect ELISA, BCMA His coated on plate. Here is the method: (§2) After washing, the plate 4 times with PBST (pH 7.4 PBS containing 0.05% Tween-20), 3% bovine serum albumin (BSA) blocking solution diluted with PBST was added at 150 μl/well and incubated at room temperature for 1 hour for blocking. After completion of the blocking, the blocking solution was discarded, and the plate was washed 4 times with PBST buffer.
(§3) The antibody to be tested was 10-fold gradient diluted with PBST containing 3% BSA with the initial concentration of 1 μM to obtain 10 dilutions which were added to the microtiter plate at 100 μl/well and incubated at room temperature for 1 hour. After completion of the incubation, the plate was washed 4 times with PBST. HRP-labeled goat-anti-human secondary antibody (Abcam, Cat #ab97225) diluted with PBST containing 3% BSA was added at 100 μl/well and incubated at room temperature for 1 hour. The plate was washed 4 times with PBST, and then TMB chromogenic substrate (Cell Signaling Technology, cat #7004S) was added at 100 μl/well and incubated at room temperature in the dark for 1 minute. The stop solution (Cell Signaling Technology, cat #7002S) was added at 100 μl/well to terminate the reaction. The absorbance value at 450 nm was read with a microplate reader (BioTek, model Synergy H1). The data were analyzed.

The target of experiment [5] is T1, BCMA expressed on cells (HEK-293T cells …). The experiment can be described thus: cell-based or functional assay.
The target of experiment [6] is T2, His-tagged extracellular domain of …. The experiment can be described thus: indirect ELISA, BCMA-His coated on plate. How it is done:
as §2, §3

The target in experiment [7] is T1, BCMA expressed on cells (HEK-293T cells …). Description: cell-based or functional assay. The source holds these as a separate data set.

As for IgG1 iso ADC (y = 4) (antibody), in experiment [1], the Killing Effect (IC50 nM) NCI-H929 was > 133 nM.

B1: murine monoclonal antibody M1 (antibody, V domains shown)
VH: QVQLQQSGAELVRPGASVKLSCKALGYSFSDYEMHWVRQTPVHGLEWIGGIHPGSGGSAYNQKFKGKATLTVDKSSSTAYMELSSLTSEDSAVYYCTRLDYGYSWAWFPYWGQGTLVTVSA
VL: EILLTQSPAIIVTSPGEKVTITCSASSSVIYMNWYQQKPGSSPKIWIYGISNLASGVPARFSGSGSGTSFSFTINSMEAEDVATYYCQQRSSYPLTFGAGTKLELK
notes: It is a hybridoma-derived murine antibody, yet the ELISA protocol names a goat-anti-human secondary antibody; also called murine antibody M1
As for B1, the EC50 is 128 nM in experiment [2], 115 nM in experiment [3] and 0.53 nM in experiment [4].

B2: humanized anti-BCMA antibody Ab2 (antibody, human IgG1, kappa, V domains shown)
VH: QVQLVQSGAEVKKPGASVKVSCKASGYSFSDYEMHWVRQAPGQGLEWIGGIHPGSGGSAYNQKFKGRVTLTVDKSTSTAYMELSSLRSEDTAVYYCTRLDYGYSWAWFPYWGQGTLVTVSA
VL: EIVLTQSPATLSLSPGERATLSCSASSSVIYMNWYQQKPGQSPKIWIYGISNLASGVPARFSGSGSGTDFTLTISSLEPEDFAVYYCQQRSSYPLTFGGGTKVEIKR
notes: Human IgG1/kappa, expressed in HEK293 cells
Take B2: the EC50 in experiment [2] stood at 3.5 nM; in experiment [6] it was 0.033 nM. The “Endocytosis efficiency %, 0.5 hour” value in experiment [5] amounted to 36.7%. For the same molecule, the “Endocytosis efficiency %, 2 hours” value in experiment [5] came out at 48%.

B3: antibody drug conjugate ADC2 (y = 4) (antibody, human IgG1, kappa, V domains shown)
VH: QVQLVQSGAEVKKPGASVKVSCKASGYSFSDYEMHWVRQAPGQGLEWIGGIHPGSGGSAYNQKFKGRVTLTVDKSTSTAYMELSSLRSEDTAVYYCTRLDYGYSWAWFPYWGQGTLVTVSA
VL: EIVLTQSPATLSLSPGERATLSCSASSSVIYMNWYQQKPGQSPKIWIYGISNLASGVPARFSGSGSGTDFTLTISSLEPEDFAVYYCQQRSSYPLTFGGGTKVEIKR
modifications: Linker-drug compound D (exatecan derivative) coupled to Ab2 after TCEP reduction. Average load y = 4 per antibody. Sites not stated.
As to B3, the “Killing Effect (IC50 nM) NCI-H929” value in experiment [7] stood at 0.76 nM.

B4: humanized anti-BCMA antibody Ab3 (antibody, human IgG1, kappa, V domains shown)
VH: QVQLVQSGAEVKKPGASVKVSCKASGYSFSDYEMHWVRQAPGQGLEWIGGIHPGSGGSAYNQKFKGKATLTVDKSTSTAYMELSSLRSEDTAVYYCTRLDYGYSWAWFPYWGQGTLVTVSA
VL: EILLTQSPATLSLSPGERATLTCSASSSVIYMNWYQQKPGSSPKIWIYGISNLASGVPARFSGSGSGTSFTLTISSLEPEDFAVYYCQQRSSYPLTFGGGTKVEIKR
notes: as for B2
As to B4, the EC50 was 3.9 nM in experiment [2] and 0.034 nM in experiment [6]. The “Endocytosis efficiency %, 0.5 hour” value in experiment [5] is 35.5%. For the same molecule, the “Endocytosis efficiency %, 2 hours” value in experiment [5] is 45.7%.

B5: humanized anti-BCMA antibody Ab1 (antibody, human IgG1, kappa, V domains shown)
VH: QVQLVQSGAEVKKPGASVKVSCKASGYSFSDYEMHWVRQAPGQGLEWMGGIHPGSGGSAYNQKFKGRVTMTRDTSTSTVYMELSSLRSEDTAVYYCTRLDYGYSWAWFPYWGQGTLVTVSA
VL: EIVLTQSPATLSLSPGERATLSCSASSSVIYMNWYQQKPGQAPRLLIYGISNLASGIPARFSGSGSGTDFTLTISSLEPEDFAVYYCQQRSSYPLTFGGGTKVEIKR
notes: as for B2
Turning to B5, the concentration giving a half-maximal response (EC50) in experiment [2] was found to be 4.6 nM. Also, in experiment [5], the “Endocytosis efficiency %, 0.5 hour” value was 36.6% and the “Endocytosis efficiency %, 2 hours” value came to 49.5%. For the same molecule, the EC50 in experiment [6] turned out to be 0.022 nM.
